From patent publication US20250043302A1, “MUTATED HYDROXYPHENYLPYRUVATE DIOXYGENASE POLYPEPTIDE, AND CODING GENE AND USE THEREOF” (BEIJING DABEINONG BIOTECHNOLOGY CO., LTD., priority 2021, published 2025)

Tests used:
Type in all cases: in vivo
[1] = test system: Arabidopsis thaliana T1 plants; test: Isoxaflutole tolerance of transgenic Arabidopsis thaliana T1 plants (spray, bleached leaf area grade, damage score); parameters: Scores (pesticide damage): scale not given here; conditions: spray, Arabidopsis thaliana T1 plants; for Classification and statistics of the grade of pesticide damage: Grade 0 (number of plants) / Classification and statistics of the grade of pesticide damage: Grade 1 (number of plants) / Classification and statistics of the grade of pesticide damage: Grade 2 (number of plants) / Classification and statistics of the grade of pesticide damage: Grade 3 (number of plants): 16 plants
Summary of the method: (§1)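 Damage graded 0–3 from the proportion of bleached leaf area 7 days after spraying. Plants were glufosinate-selected T1 lines, 18 days after sowing, plus vector and wild-type controls. Rates: mesotrione 52.5–420, isoxaflutole 35–280, topramezone 25–200 g ai/ha, with water (0×).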

[2] = test system: Arabidopsis thaliana T1 plants; test: Topramezone tolerance of transgenic Arabidopsis thaliana T1 plants (spray, bleached leaf area grade, damage score); conditions: 7 DAT, Table 4; for Classification and statistics of the grade of pesticide damage: Grade 0 / Classification and statistics of the grade of pesticide damage: Grade 1 / Classification and statistics of the grade of pesticide damage: Grade 2 / Classification and statistics of the grade of pesticide damage: Grade 3: number of plants; for Scores: pesticide damage score 0-100
Summary of the method: as §1

[3] = test system: Arabidopsis thaliana T1 plants; test: Mesotrione tolerance of transgenic Arabidopsis thaliana T1 plants (spray, bleached leaf area grade, damage score); parameters: Scores: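 damage score 0-100 computed as Σ(N×S)/(T×M)×100 over grades 0-3 with higher meaning more damage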; conditions: Arabidopsis thaliana T1 plants; for Grade 0 (classification and statistics of the grade of pesticide damage; number of plants) / Grade 1 (classification and statistics of the grade of pesticide damage; number of plants) / Grade 2 (classification and statistics of the grade of pesticide damage; number of plants) / Grade 3 (classification and statistics of the grade of pesticide damage; number of plants): 16 plants
Summary of the method: as §1

[4] = isoxaflutole 35 g ai/ha (0.5x field concentration)
[5] = isoxaflutole 70 g ai/ha (1x field concentration)

B1: NtHPPDm-F372A-02: nucleotide sequence encoding Nicotiana tabacum HPPD with F372A; vector DBN11751 (nucleic acid)
DNA: ATGGGGAAGCTGGAAACCGTCACTACCACCTCGGCGGCGGCTGCTGATGATTCATCGGAATTAACAACCAACTTCAAGTTGGTTGGTTTCAAAAATTTCATCAGAACAAACCCAAGGTCTGATTTCTTCTCCGTCAAGAGCTTCCACCACATTGAATTCTGGTGCGGTGACGCAACTAACACAGCGCGCCGCTTCTCATGGAGCCTAGGGATGCCAATTGCAGCTAAGAGTGATCTTTCAACAGGAAACAGCGTGCACGCCTCCTACCTCCTCCGGCCCGTAAGCGGTTCTTTACAGTTCCTGTTTACAGCACCATATTCACCTTCTATTTCGACTCCTAGTTCAGCTGCAATCCCATCTTTTTCCACATCTACACATAGGTCTTTCACTACAACACATGGACTGGGTGTTCGTGCCGTCGCCCTCGAGGTGGAGAATGCTTATACTGCCTTCAGTGCTTCTGTCTCCAGAGGCGCCAAGCCAATGTTTGAACCTGTGACAATTGATGAACAAGTAGCAATGGCTGAGGTTCATTTGTACGGCGATGTTGTGCTGCGATTTGTTTCTTATCTCAAGGACGCCGACAACCTGGTCTTCCTGCCGGGGTTTGAGGCCATGGATGAAACTGCTAGTTACAAAGAACTTGATTATGGAATACGGCGTTTGGATCATGCTGTGGGCAATGTTCCAGAACTCGGCCCGGTAGTTGATTACATCAAGAGGTTTACTGGATTTCATGAATTTGCAGAGTTTACCGCTGAAGATGTGGGAACTGCGGAAAGTGGGCTAAACTCCATGGTTCTTGCGAACAATGATGAGACTGTGCTCCTCCCTCTGAATGAGCCTGTTTATGGCACCAAAAGAAAATCTCAGATACAAACATATCTTGAGCATAATGAAGGAGCTGGGGTGCAGCACCTTGCTCTTGTTACTGAAGACATCTTTAAGACTTTGACAGAGATGAGGAAGAGAAGTGGAGTTGGAGGTTTTGAGTTCATGCCTTCCCCCCCGCCGACCTACTACAAGAATTTGAAGAACAGGGCTGGTGACGTCCTCTCAGACGAGCAGATTTTGGCTTGTGAGGAGCTTGGCATCTTGGTAGACCGGGACGACCAGGGGACGCTTCTCCAAATTGCCACAAAACCCGTCGGGGACCGCCCCACCATATTTATTGAGATCATCCAGAGGATAGGCTGCATGCTTAAAGATGGAAAAGGTCAAGTGTACCAGAAGGGTGGTTGTGGTGGGTTTGGCAAAGGAAATTTTTCTGAGCTGTTCAGAAGCATAGAAGAATATGAGAAGACACTGGAAGCAAAACAAGCAAATCAAGTTGCGGCCGCGTGA
modifications: NtHPPDm-F372A-02 Nucleotide Sequence
notes: vector DBN11751
- Resistance evaluation [1, 4]: Poorly
- Scores (pesticide damage) [1, 4]: 54
- Classification and statistics of the grade of pesticide damage: Grade 0 (number of plants) [1, 4]: 0
- Classification and statistics of the grade of pesticide damage: Grade 1 (number of plants) [1, 4]: 6
- Classification and statistics of the grade of pesticide damage: Grade 2 (number of plants) [1, 4]: 10
- Classification and statistics of the grade of pesticide damage: Grade 3 (number of plants) [1, 4]: 0
- Resistance evaluation [1, 5]: Non-resistant
- Scores (pesticide damage) [1, 5]: 100
- Classification and statistics of the grade of pesticide damage: Grade 0 (number of plants) [1, 5]: 0
- Classification and statistics of the grade of pesticide damage: Grade 1 (number of plants) [1, 5]: 0
- Classification and statistics of the grade of pesticide damage: Grade 2 (number of plants) [1, 5]: 0
- Classification and statistics of the grade of pesticide damage: Grade 3 (number of plants) [1, 5]: 16
- Classification and statistics of the grade of pesticide damage: Grade 0 ([2]; topramezone 25 g ai/ha (1×)): 0
- Classification and statistics of the grade of pesticide damage: Grade 1 ([2]; topramezone 25 g ai/ha (1×)): 6
- Classification and statistics of the grade of pesticide damage: Grade 2 ([2]; topramezone 25 g ai/ha (1×)): 10
- Classification and statistics of the grade of pesticide damage: Grade 3 ([2]; topramezone 25 g ai/ha (1×)): 0
- Classification and statistics of the grade of pesticide damage: Grade 0 ([2]; topramezone 100 g ai/ha (4×)): 0
- Classification and statistics of the grade of pesticide damage: Grade 1 ([2]; topramezone 100 g ai/ha (4×)): 0
- Classification and statistics of the grade of pesticide damage: Grade 2 ([2]; topramezone 100 g ai/ha (4×)): 0
- Classification and statistics of the grade of pesticide damage: Grade 3 ([2]; topramezone 100 g ai/ha (4×)): 16
- Scores ([2]; topramezone 25 g ai/ha (1×)): 54
- Scores ([2]; topramezone 100 g ai/ha (4×)): 100
- Resistance evaluation ([2]; topramezone 25 g ai/ha (1×)): poorly
- Resistance evaluation ([2]; topramezone 100 g ai/ha (4×)): non-resistant (non-resistant plants (scores 68-100))
- Resistance evaluation ([3]; mesotrione 52.5 g ai/ha): Poorly resistant
- Scores ([3]; mesotrione 52.5 g ai/ha): 65
- Grade 0 (classification and statistics of the grade of pesticide damage; number of plants) ([3]; mesotrione 52.5 g ai/ha): 0
- Grade 1 (classification and statistics of the grade of pesticide damage; number of plants) ([3]; mesotrione 52.5 g ai/ha): 2
- Grade 2 (classification and statistics of the grade of pesticide damage; number of plants) ([3]; mesotrione 52.5 g ai/ha): 13
- Grade 3 (classification and statistics of the grade of pesticide damage; number of plants) ([3]; mesotrione 52.5 g ai/ha): 1
- Resistance evaluation ([3]; mesotrione 105 g ai/ha): Non-resistant
- Scores ([3]; mesotrione 105 g ai/ha): 100
- Grade 0 (classification and statistics of the grade of pesticide damage; number of plants) ([3]; mesotrione 105 g ai/ha): 0
- Grade 1 (classification and statistics of the grade of pesticide damage; number of plants) ([3]; mesotrione 105 g ai/ha): 0
- Grade 2 (classification and statistics of the grade of pesticide damage; number of plants) ([3]; mesotrione 105 g ai/ha): 0
- Grade 3 (classification and statistics of the grade of pesticide damage; number of plants) ([3]; mesotrione 105 g ai/ha): 16
